According to PMC12949589 (Neurobiology of disease, 2020):
Numbering of substitutions follows the chain as printed. Names may count otherwise.

Molecular target: T1, PACT C213F, mammalian two-hybrid fusion (human, UniProt O75569 1-313, C213F)
T1 sequence (looked up): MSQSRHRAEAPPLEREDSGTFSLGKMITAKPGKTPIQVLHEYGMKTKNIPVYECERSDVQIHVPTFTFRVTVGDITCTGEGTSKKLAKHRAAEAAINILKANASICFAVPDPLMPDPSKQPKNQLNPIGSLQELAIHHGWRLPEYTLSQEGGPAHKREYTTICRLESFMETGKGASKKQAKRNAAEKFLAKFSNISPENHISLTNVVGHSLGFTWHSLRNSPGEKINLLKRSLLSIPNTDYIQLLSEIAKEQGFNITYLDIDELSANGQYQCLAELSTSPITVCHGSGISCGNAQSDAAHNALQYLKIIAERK
Experiment: two-hybrid

B1: PACT C77S, mammalian two-hybrid fusion (natural protein, human, UniProt O75569 1-313, looked up)
chain: T1 sequence (looked up) with C77S, F213C
**Q.** For B1, which “fold over wt PACT-wt PACT interaction (luciferase reporter)” value is on record?
**A.** Its value is about 9 fold.
